Reference: patent publication US9611285B2, “Fucosyltransferases and their applications” (Jennewein Biotechnologie GmbH, priority 2011, dated 2017)

Columns and labels:
[1] = test system: alpha-1,2-fucosyltransferase His6-Propeptide-WbgL; test: Acceptor substrate spectrum by HPAEC-PAD activity assay; type: biochemical, Escherichia coli O126; conditions: acceptor substrate instead of 5 mM lactose; 2 mM GDP-β-L-fucose; relative to lactose
Procedure: (§1) Enzyme activity was also determined by HPAEC-PAD analysis for detection of 2′-fucosyllactose. The assay solution contained 2 mM GDP-β-L-fucose, 5 mM lactose, 50 mM Tris-HCl pH 7.6 with 2 mM MnCl2, 1 mM DTT, 1 U alkaline phosphatase in a total volume of 175 μl and was incubated at 30° C. after the addition of […] and purified enzyme solution. The reaction was stopped by heating for 5 min at 95° C. at different time points where the conversion rate was linear. The centrifuged samples were analysed by Dionex HPAEC-PAD (Dionex Corporation, Sunnyvale, Calif., USA) on CarboPac PA1 column using Chromeleon™ 6.40 Software. The elution was carried out with 50 mM NaOH at 30° C. (flow rate 1 mL/min, 50 μL injection volume). The concentration of the generated trisaccharide 2′-fucosyllactose was determined by a standard calibration curve with commercially available 2′-fucosyllactose and used for subsequent calculation of enzyme activity (see FIG. 6).
(§2) For both, HPAEC-PAD and photometric assays, 1 U of His6-Propeptide-WbgL is the amount of enzyme which produces 1 μmol product (GDP or 2′-fucosyllactose) per minute under standard assay conditions.
The substrate spectrum of recombinant His6-Propeptide-WbgL was analysed by HPAEC-PAD according to activity assay described above. Instead of 5 mM lactose different acceptor substrates were tested to determine the relative activity compared to lactose.

[2] = test system: OC[C@H]1O[C@@H](O[C@H]2[C@H](O)[C@@H](O)C(O)O[C@@H]2CO)[C@H](O)[C@@H](O)[C@H]1O; test: Kinetic analysis by photometric pyruvate kinase/lactate dehydrogenase assay (initial rates, Michaelis-Menten); type: biochemical, Escherichia coli O126; conditions: other: lactose varied 0.05 to 40 mM at 2 mM GDP-beta-L-fucose, GDP-beta-L-fucose varied 0.02 to 4 mM at 10 mM lactose, 30° C., pH 7.6
Procedure: (§3) The photometric assay was performed using the pyruvate kinase/lactate dehydrogenase system for the detection of released GDP (Barratt, D. H., L. Barber, et al. (2001). “Multiple, distinct isoforms of sucrose synthase in pea.” Plant Physiology 127(2): 655-664.). The reaction mixture for the microtiter plate assay contained 50 mM Tris-HCl pH 7.6, 2 mM GDP-beta-L-fucose, 5 mM Lactose, 1 mM phosphoenolpyruvate, 1 mM DTT, 0.25 mM NADH, 2 mM MnCl2, 5 U pyruvate kinase, and 5 U lactate dehydrogenase in a total volume of 250 μl. The reaction was started by addition of 100 μl enzyme solution and followed at 340 nm at 30° C. Control experiments for the detection of side activities were done without acceptor substrate lactose (see FIG. 5).
as §2
(§4) The kinetic constants of His6-Propeptide-WbgL for the acceptor substrate lactose and the donor substrate GDP-beta-L-fucose were derived from initial rate analysis at a variable substrate concentrations using the photometric assay described above. GDP-beta-L-fucose was varied from 0.02 mM to 4 mM at a constant concentration of 10 mM lactose and lactose was altered from 0.05 to 40 mM at a constant concentration of 2 mM GDP-beta-L-fucose. All data were determined by non linear-regression analysis according to the Michaelis-Menten equation using the Sigma Plot 10 software (SPSS Science Software GmbH, Erkrath, Germany).

[3] = test system: C[C@@H]1O[C@H](OP(=O)(O)OP(=O)(O)OC[C@H]2O[C@@H](n3cnc4c(=O)[nH]c(N)nc43)[C@H](O)[C@@H]2O)[C@@H](O)[C@H](O)[C@@H]1O; test: as above; type: biochemical, Escherichia coli O126; conditions: other: lactose varied 0.05 to 40 mM at 2 mM GDP-beta-L-fucose, GDP-beta-L-fucose varied 0.02 to 4 mM at 10 mM lactose, 30° C., pH 7.6
Procedure: as §3, §2, §4

[4] = test system: E. coli BL21(DE3) ΔlacZ pDEST14-fkp pCOLA-lacY-fucP; test: Production of 2'-fucosyllactose in recombinant E. coli expressing a fucosyltransferase (HPLC); type: cell-based, Escherichia coli
Procedure: Cells E. coli BL21(DE3) ΔlacZ pDEST14-fkp pCOLA-lacY-fucP were transformed with pACYCDuet-1 carrying the appropriate fucosyltransferase gene. Colonies were grown on 2YT plates with the appropriate antibiotics. 5 ml over night cultures (2YT with antibiotics) were grown of each strain and from this cultures 15 ml mineral medium each were inoculated to 1%. Cells were grown using glycerol as carbon source and at OD600=0.5 were induced with 0.1 mM IPTG and 40 mM lactose and 30 mM fucose were added. Cultures were incubated at 30° C. and 120 rpm. Production of 2′-fucosyllactose was monitored HPLC analysis. The comparison of the amount of 2′-fucosyllactose (2′-FL) produced by expression of FucT2 from Helicobacter pylori compared to the expression of WbgL from Escherichia coli O126 is shown in the following table 1: […]

[5] = pH optimum and metal ion dependency of the enzyme (HPAEC-PAD assay); type: biochemical
Procedure: as §1
To study the optimal pH value for the activity of recombinant His6-Propeptide-WbgL, assays were performed at different pH values of a 50 mM Tris-HCl buffer ranging from pH 6.8 to 8.4. Optimal pH value was 7.6 (see. FIG. 8). Addition of metal ions Mn^2+ to standard assays allowed to investigate the metal ion dependency. All samples were analyzed HAPAEC-PAD as described above.

Molecule: OC[C@H]1O[C@@H](O[C@@H]2[C@@H](CO)OC(O)(CO)[C@H]2O)[C@H](O)[C@@H](O)[C@H]1O (mixture of isomers) [Lactulose]
- Relative activity [1]: 124%

Molecule: CC(=O)NC1C(O)OC(CO)C(OC2OC(CO)C(O)C(O)C2NC(C)=O)C1O (stereo not shown) [LacDiNAc]
- Relative activity [1]: 0%

Molecule: CC(=O)N[C@H]1C(O)O[C@H](CO)[C@@H](O[C@@H]2O[C@H](CO)[C@H](O)[C@H](O)[C@H]2O)[C@@H]1O (stereo partly shown) [LacNAc Typ II]
- Relative activity [1]: 95%

Molecule: N[C@H]1C(O)O[C@H](CO)[C@H](O)[C@@H]1O (stereo partly drawn) [D-GalNH2]
- Relative activity [1]: 0%

Molecule: OC[C@H]1O[C@@H](O[C@H]2[C@H](O)[C@@H](O)C(O)O[C@@H]2CO)[C@H](O)[C@@H](O)[C@H]1O (stereo partly shown) [Lactose]
- Relative activity [1]: 100%

Molecule: recombinant alpha-1,2-fucosyltransferase His6-Propeptide-WbgL (Escherichia coli)
- Km [2]: 5300 µM
- Vmax [2]: 0.17 µmol/min/mg
- Vmax/Km [2]: 32 µL/min/mg
- Km [3]: 270 µM
- Vmax [3]: 0.167 µmol/min/mg
- Vmax/Km [3]: 618 µL/min/mg

Molecule: CC(=O)N[C@H]1C(O)O[C@H](CO)[C@H](O)[C@@H]1O (stereo partly drawn) [D-GalNAc]
- Relative activity [1]: 0%

Molecule: OC[C@H]1O[C@@H](O[C@H]2[C@H](O)[C@@H](O)[C@H](OCc3ccccc3)O[C@@H]2CO)[C@H](O)[C@@H](O)[C@H]1O [β-Benzyl-Lactose]
- Relative activity [1]: 50%

Molecule: CC(=O)N[C@@H]1[C@@H](O[C@@H]2O[C@H](CO)[C@H](O)[C@H](O)[C@H]2O)[C@H](O)[C@@H](CO)O[C@@H]1O [LacNAc Typ I]
- Relative activity [1]: 28%

Molecule: O=C[C@H](O)[C@@H](O)[C@@H](O)[C@H](O)CO [D-Galactose]
- Relative activity [1]: 71%

B1: WbgL: alpha-1,2-fucosyltransferase WbgL from E. coli O126 (SEQ ID No. 2), expressed from pACYC-wbgL (protein, listed as Escherichia coli)
chain: MSIIRLQGGLGNQLFQFSFGYALSKINGTPLYFDISHYAENDDHGGYRLNNLQIPEEYLQYYTPKINNIYKLLVRGSRLYPDIFLFLGFCNEFHAYGYDFEYIAQKWKSKKYIGYWQSEHFFHKHILDLKEFFIPKNVSEQANLLAAKILESQSSLSIHIRRGDYIKNKTATLTHGVCSLEYYKKALNKIRDLAMIRDVFIFSDDIFWCKENIETLLSKKYNIYYSEDLSQEEDLWLMSLANHHIIANSSFSWWGAYLGSSASQIVIYPTPWYDITPKNTYIPIVNHWINVDKHSSC
- Yield 2′-FL ([4]; 0.1 mM IPTG, 40 mM lactose, 30 mM fucose, 30° C., 120 rpm): 4.05 mM
- Amount of fucosylated product 2′-fucosyllactose compared to FucT2 from Helicobacter pylori ([4]; same cultures as Table 3): significantly higher

B2: His6-Propeptide-WbgL: recombinant WbgL with N-terminal His-Tag and S. hyicus lipase propeptide (513 amino acids), expressed from pETHIS6PropwbgL in E. coli (protein)
chain: NDSTTQTTTPLEVAQTSQQETHTHQTPVTSLHTATPEHVDDSKEATPLPEKAESPKTEVTVQPSSHTQEVPALHKKTQQQPAYKDKTVPESTIASKSVESNKATENEMSPVEHHASNVEKREDRLETNETTPPSVDREFSHKIINNTHVNPKTDGQTNVNVDTKTIDTVSPKDDRIDTAQPKQVDVPKENTTAQNKFTSQASDKKPTMSIIRLQGGLGNQLFQFSFGYALSKINGTPLYFDISHYAENDDHGGYRLNNLQIPEEYLQYYTPKINNIYKLLVRGSRLYPDIFLFLGFCNEFHAYGYDFEYIAQKWKSKKYIGYWQSEHFFHKHILDLKEFFIPKNVSEQANLLAAKILESQSSLSIHIRRGDYIKNKTATLTHGVCSLEYYKKALNKIRDLAMIRDVFIFSDDIFWCKENIETLLSKKYNIYYSEDLSQEEDLWLMSLANHHIIANSSFSWWGAYLGSSASQIVIYPTPWYDITPKNTYIPIVNHWINVDKHSSC
modifications: left off: small tags and cut ends
notes: recombinant WbgL with N-terminal His-Tag and S. hyicus lipase propeptide (513 amino acids), expressed from pETHIS6PropwbgL in E. coli
- Optimal pH value ([5]; 50 mM Tris-HCl buffer, pH 6.8 to 8.4): 7.6
- Metal ion dependency (Mn^2+) ([5]; addition of Mn^2+ to standard assays): not dependent on Mn^2+ ions
